The conditions of this data set: Aspergillus oryzae (strain ATCC 42149 / RIB 40), Thermal, DSC, 3/3'-dimethylglutaric acid (DMG) 100 mM, NaCl 2 M, whole UniProt chain shown; for heat capacity change of unfolding / unfolding free energy: 25 °C.

B1: Guanyl-specific ribonuclease T1 wild type, P00651 (protein)
chain: MMYSKLLTLTTLLLPTALALPSLVERACDYTCGSNCYSSSDVSTAQAAGYQLHEDGETVGSNSYPHKYNNYEGFDFSVSSPYYEWPILSSGDVYSGGSPGADRVVFNENNQLAGVITHTGASGNNFVECT
For orientation: Tm means the temperature at the midpoint of the melting transition. Regarding B1, the “heat capacity change of unfolding” value was 1.59 kcal/mol/K (pH 4); 1.59 kcal/mol/K (pH 5); 1.59 kcal/mol/K (pH 6); 1.59 kcal/mol/K (pH 7); 1.59 kcal/mol/K (pH 8). Besides, the unfolding free energy runs as follows: (pH 4) 7.43 kcal/mol; (pH 5) 7.39 kcal/mol; (pH 6) 6.91 kcal/mol; (pH 7) 4.54 kcal/mol; (pH 8) 3.63 kcal/mol. Moreover, the Tm runs as follows: (pH 4) 72.4 °C; (pH 5) 73.2 °C; (pH 6) 70.4 °C; (pH 7) 66.8 °C; (pH 8) 65.4 °C. Moreover, the “unfolding enthalpy (calorimetric)” value was determined as 93.7 kcal/mol (pH 4); 93.2 kcal/mol (pH 5); 90.2 kcal/mol (pH 6); 71.7 kcal/mol (pH 7); 63.8 kcal/mol (pH 8).

The values above are taken from FireProtDB (doi:10.1111/j.1432-1033.1995.tb20418.x).
